# Laboratory results reported in patent publication US8865473B2, “Luminescence detecting apparatuses and methods” (Applied Biosystems, LLC, priority 1999, dated 2014).
# Molecular target: T1, Orexin 2 Receptor (Homo sapiens, UniProt O43614)
# T1 construct: host or cells: CHO cells co-expressing aequorin (CHO-Aeq-OX2-A2)
# T1 sequence (O43614 1-444): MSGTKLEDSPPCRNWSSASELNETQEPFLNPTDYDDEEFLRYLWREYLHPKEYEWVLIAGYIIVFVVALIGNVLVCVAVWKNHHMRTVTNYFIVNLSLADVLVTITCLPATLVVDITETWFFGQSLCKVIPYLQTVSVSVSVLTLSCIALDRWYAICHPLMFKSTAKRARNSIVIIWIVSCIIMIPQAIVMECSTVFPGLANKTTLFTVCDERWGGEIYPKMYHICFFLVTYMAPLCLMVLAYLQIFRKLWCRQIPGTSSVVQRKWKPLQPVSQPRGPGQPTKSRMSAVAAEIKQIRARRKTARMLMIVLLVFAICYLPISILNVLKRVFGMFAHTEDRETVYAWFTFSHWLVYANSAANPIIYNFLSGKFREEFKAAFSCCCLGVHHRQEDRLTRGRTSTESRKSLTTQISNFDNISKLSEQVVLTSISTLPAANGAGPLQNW
# Test: Aequorin luminescence agonist assay in CHO-Aeq-OX2-A2 cells on NorthStar
# Type: cell-based
# Conditions: coelenterazine h +/- 0.6 μM BAPTA-AM 4 hours, light integrated 20 seconds, unchanged in the presence of BAPTA-AM, read-out: reported EC50 for Orexin B
# Method: CHO-Aeq-OX2-A2 cells (Euroscreen) were loaded with coelenterazine h+/−0.6 μM BAPTA-AM for 4 hours. The peptide agonist Orexin B was injected into the wells, and the emitted light was integrated for 20 seconds on the NorthStar™.
substance,measurement,value
Orexin B,EC50,0.75 nM
